Source: paper PMC10786891, “Massively parallel profiling of RNA-targeting CRISPR-Cas13d”

T1: EsCas13d, nuclease-dead (Eubacterium siraeum, UniProt B0MS50, R295A;H300A;R849A;H854A)
T1 sequence: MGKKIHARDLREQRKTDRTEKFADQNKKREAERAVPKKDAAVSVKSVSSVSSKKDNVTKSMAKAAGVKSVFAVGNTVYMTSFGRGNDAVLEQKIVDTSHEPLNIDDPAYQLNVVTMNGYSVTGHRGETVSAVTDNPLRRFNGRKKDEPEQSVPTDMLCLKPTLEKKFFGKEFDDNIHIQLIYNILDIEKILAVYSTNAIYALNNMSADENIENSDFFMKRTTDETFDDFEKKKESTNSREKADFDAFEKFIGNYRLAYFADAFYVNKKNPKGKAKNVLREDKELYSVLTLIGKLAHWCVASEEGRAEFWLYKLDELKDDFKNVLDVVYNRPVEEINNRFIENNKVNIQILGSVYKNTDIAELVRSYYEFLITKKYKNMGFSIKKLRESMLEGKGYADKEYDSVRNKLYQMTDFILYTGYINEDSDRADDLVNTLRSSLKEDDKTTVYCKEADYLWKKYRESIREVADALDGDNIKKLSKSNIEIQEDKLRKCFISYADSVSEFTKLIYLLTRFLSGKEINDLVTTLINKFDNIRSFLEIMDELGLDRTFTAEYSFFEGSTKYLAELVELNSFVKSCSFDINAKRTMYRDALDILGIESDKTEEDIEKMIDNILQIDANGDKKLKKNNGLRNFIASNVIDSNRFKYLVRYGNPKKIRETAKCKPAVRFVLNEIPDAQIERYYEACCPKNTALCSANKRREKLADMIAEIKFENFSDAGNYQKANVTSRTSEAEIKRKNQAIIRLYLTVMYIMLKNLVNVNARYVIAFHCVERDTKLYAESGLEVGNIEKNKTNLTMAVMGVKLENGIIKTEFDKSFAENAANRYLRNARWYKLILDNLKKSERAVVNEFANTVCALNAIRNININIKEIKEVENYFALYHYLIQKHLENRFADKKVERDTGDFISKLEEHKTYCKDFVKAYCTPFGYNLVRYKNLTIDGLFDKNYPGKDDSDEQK


Target: T1, EsCas13d, nuclease-dead
Assay: crRNA (strand 1, pre-loaded); Mg2+; 40 mM Tris-HCl pH 7.5, 150 mM NaCl, 6 mM MgCl2, 1 mM DTT, 0.1% Tween-20, 0.2 mg/ml BSA; 25 C; 10 min per concentration, then washed
Settings: tags: His6-TwinStrep-SUMO cleaved; N-terminal SNAP kept (SNAP-Surface 488); label: 3' end held by stalled T7 RNA polymerase

| Binder | Kd [µM] |
| --- | --- |
| target 3 C6A,U8C (mixed) RNA 1: CACCCGUGCAAAAUUGCAGGGGUCUAAAACGACCUGAAUAUUUCAGAUCAAA RNA 2: GGGAAUGGAUCCACAUCUACGAAUUCGUUUUUGAUCUGAAAUACUAAGGUCUGCAGAUCGGAAGAGCACACGU | 0.0349 ± 0.0036 |
| target 3 U8C,A11C (mixed) RNA 1: CACCCGUGCAAAAUUGCAGGGGUCUAAAACGACCUGAAUAUUUCAGAUCAAA RNA 2: GGGAAUGGAUCCACAUCUACGAAUUCGUUUUUGAUCUGAACUACUCAGGUCUGCAGAUCGGAAGAGCACACGU | 0.057 ± 0.014 |
| target 3 G4C,A9G (mixed) RNA 1: CACCCGUGCAAAAUUGCAGGGGUCUAAAACGACCUGAAUAUUUCAGAUCAAA RNA 2: GGGAAUGGAUCCACAUCUACGAAUUCGUUUUUGAUCUGAAAUGUUCACGUCUGCAGAUCGGAAGAGCACACGU | 0.0435 ± 0.0065 |
| target 3 U2G,A9C (mixed) RNA 1: CACCCGUGCAAAAUUGCAGGGGUCUAAAACGACCUGAAUAUUUCAGAUCAAA RNA 2: GGGAAUGGAUCCACAUCUACGAAUUCGUUUUUGAUCUGAAAUCUUCAGGGCUGCAGAUCGGAAGAGCACACGU | 0.106 ± 0.0495 |
| target 3 U2C,C6G (mixed) RNA 1: CACCCGUGCAAAAUUGCAGGGGUCUAAAACGACCUGAAUAUUUCAGAUCAAA RNA 2: GGGAAUGGAUCCACAUCUACGAAUUCGUUUUUGAUCUGAAAUAUUGAGGCCUGCAGAUCGGAAGAGCACACGU | 0.0315 ± 0.0045 |
| target 3 G3C,U7C (mixed) RNA 1: CACCCGUGCAAAAUUGCAGGGGUCUAAAACGACCUGAAUAUUUCAGAUCAAA RNA 2: GGGAAUGGAUCCACAUCUACGAAUUCGUUUUUGAUCUGAAAUAUCCAGCUCUGCAGAUCGGAAGAGCACACGU | 0.064 ± 0.012 |
| target 3 C1G,A12U (mixed) RNA 1: CACCCGUGCAAAAUUGCAGGGGUCUAAAACGACCUGAAUAUUUCAGAUCAAA RNA 2: GGGAAUGGAUCCACAUCUACGAAUUCGUUUUUGAUCUGAUAUAUUCAGGUGUGCAGAUCGGAAGAGCACACGU | 0.063 ± 0.018 |
| target 3 C1A,U7G (mixed) RNA 1: CACCCGUGCAAAAUUGCAGGGGUCUAAAACGACCUGAAUAUUUCAGAUCAAA RNA 2: GGGAAUGGAUCCACAUCUACGAAUUCGUUUUUGAUCUGAAAUAUGCAGGUAUGCAGAUCGGAAGAGCACACGU | 0.0245 ± 0.006 |
| target 3 complement block 4-8 (mixed) RNA 1: CACCCGUGCAAAAUUGCAGGGGUCUAAAACGACCUGAAUAUUUCAGAUCAAA RNA 2: GGGAAUGGAUCCACAUCUACGAAUUCGUUUUUGAUCUGAAAUAAAGUCGUCUGCAGAUCGGAAGAGCACACGU | 0.0515 ± 0.0055 |
| target 3 U2G,A13G (mixed) RNA 1: CACCCGUGCAAAAUUGCAGGGGUCUAAAACGACCUGAAUAUUUCAGAUCAAA RNA 2: GGGAAUGGAUCCACAUCUACGAAUUCGUUUUUGAUCUGGAAUAUUCAGGGCUGCAGAUCGGAAGAGCACACGU | 0.0735 ± 0.029 |
| target 3 U2C (mixed) RNA 1: CACCCGUGCAAAAUUGCAGGGGUCUAAAACGACCUGAAUAUUUCAGAUCAAA RNA 2: GGGAAUGGAUCCACAUCUACGAAUUCGUUUUUGAUCUGAAAUAUUCAGGCCUGCAGAUCGGAAGAGCACACGU | 0.0885 ± 0.018 |
| target 3 A12U (mixed) RNA 1: CACCCGUGCAAAAUUGCAGGGGUCUAAAACGACCUGAAUAUUUCAGAUCAAA RNA 2: GGGAAUGGAUCCACAUCUACGAAUUCGUUUUUGAUCUGAUAUAUUCAGGUCUGCAGAUCGGAAGAGCACACGU | 0.0735 ± 0.0195 |
| target 3 insC 3' of 5,insA 3' of 3 (mixed) RNA 1: CACCCGUGCAAAAUUGCAGGGGUCUAAAACGACCUGAAUAUUUCAGAUCAAA RNA 2: GGGAAUGGAUCCACAUCUACGAAUUCGUUUUUGAUCUGAAAUAUUCACGGAUCUGCAGAUCGGAAGAGCACACGU | 0.00735 ± 0.0005 |
| target 3 insC 3' of 7,insG 3' of 7 (mixed) RNA 1: CACCCGUGCAAAAUUGCAGGGGUCUAAAACGACCUGAAUAUUUCAGAUCAAA RNA 2: GGGAAUGGAUCCACAUCUACGAAUUCGUUUUUGAUCUGAAAUAUUCGCAGGUCUGCAGAUCGGAAGAGCACACGU | 0.0168 ± 0.00145 |
| target 3 C1G,A5G (mixed) RNA 1: CACCCGUGCAAAAUUGCAGGGGUCUAAAACGACCUGAAUAUUUCAGAUCAAA RNA 2: GGGAAUGGAUCCACAUCUACGAAUUCGUUUUUGAUCUGAAAUAUUCGGGUGUGCAGAUCGGAAGAGCACACGU | 0.055 ± 0.022 |
| target 3 insG 3' of 8,insG 3' of 2 (mixed) RNA 1: CACCCGUGCAAAAUUGCAGGGGUCUAAAACGACCUGAAUAUUUCAGAUCAAA RNA 2: GGGAAUGGAUCCACAUCUACGAAUUCGUUUUUGAUCUGAAAUAUGUCAGGUGCUGCAGAUCGGAAGAGCACACGU | 0.057 ± 0.027 |
| target 3 insC 3' of 8,insA 3' of 8 (mixed) RNA 1: CACCCGUGCAAAAUUGCAGGGGUCUAAAACGACCUGAAUAUUUCAGAUCAAA RNA 2: GGGAAUGGAUCCACAUCUACGAAUUCGUUUUUGAUCUGAAAUAUCAUCAGGUCUGCAGAUCGGAAGAGCACACGU | 0.0765 ± 0.019 |
| target 3 insC 3' of 9,insA 3' of 8 (mixed) RNA 1: CACCCGUGCAAAAUUGCAGGGGUCUAAAACGACCUGAAUAUUUCAGAUCAAA RNA 2: GGGAAUGGAUCCACAUCUACGAAUUCGUUUUUGAUCUGAAAUACUAUCAGGUCUGCAGAUCGGAAGAGCACACGU | 0.0439 ± 0.00735 |
| target 3 insU 3' of 11,insC 3' of 5 (mixed) RNA 1: CACCCGUGCAAAAUUGCAGGGGUCUAAAACGACCUGAAUAUUUCAGAUCAAA RNA 2: GGGAAUGGAUCCACAUCUACGAAUUCGUUUUUGAUCUGAAAUUAUUCACGGUCUGCAGAUCGGAAGAGCACACGU | 0.0815 ± 0.0125 |
| target 3 U7A,U22A (mixed) RNA 1: CACCCGUGCAAAAUUGCAGGGGUCUAAAACGACCUGAAUAUUUCAGAUCAAA RNA 2: GGGAAUGGAUCCACAUCUACGAAUUCGUUAUUGAUCUGAAAUAUACAGGUCUGCAGAUCGGAAGAGCACACGU | 0.0425 ± 0.00725 |
| target 3 insC 3' of 9,insG 3' of 9 (mixed) RNA 1: CACCCGUGCAAAAUUGCAGGGGUCUAAAACGACCUGAAUAUUUCAGAUCAAA RNA 2: GGGAAUGGAUCCACAUCUACGAAUUCGUUUUUGAUCUGAAAUACGUUCAGGUCUGCAGAUCGGAAGAGCACACGU | 0.118 ± 0.05 |
| target 3 insU 3' of 14,insC 3' of 3 (mixed) RNA 1: CACCCGUGCAAAAUUGCAGGGGUCUAAAACGACCUGAAUAUUUCAGAUCAAA RNA 2: GGGAAUGGAUCCACAUCUACGAAUUCGUUUUUGAUCUGUAAAUAUUCAGGCUCUGCAGAUCGGAAGAGCACACGU | 0.071 ± 0.028 |
| target 3 A5G (mixed) RNA 1: CACCCGUGCAAAAUUGCAGGGGUCUAAAACGACCUGAAUAUUUCAGAUCAAA RNA 2: GGGAAUGGAUCCACAUCUACGAAUUCGUUUUUGAUCUGAAAUAUUCGGGUCUGCAGAUCGGAAGAGCACACGU | 0.0209 ± 0.0018 |
| target 3 insU 3' of 11,insU 3' of 5 (mixed) RNA 1: CACCCGUGCAAAAUUGCAGGGGUCUAAAACGACCUGAAUAUUUCAGAUCAAA RNA 2: GGGAAUGGAUCCACAUCUACGAAUUCGUUUUUGAUCUGAAAUUAUUCAUGGUCUGCAGAUCGGAAGAGCACACGU | 0.064 ± 0.013 |
| target 3 insC 3' of 8,insC 3' of 5 (mixed) RNA 1: CACCCGUGCAAAAUUGCAGGGGUCUAAAACGACCUGAAUAUUUCAGAUCAAA RNA 2: GGGAAUGGAUCCACAUCUACGAAUUCGUUUUUGAUCUGAAAUAUCUCACGGUCUGCAGAUCGGAAGAGCACACGU | 0.0745 ± 0.0095 |
| target 1 C2U,U10C (mixed) RNA 1: CACCCGUGCAAAAAUGCAGGGGUCUAAAACUGAGCGGAUAACCUCUCUAUGG RNA 2: GGGAAUGGAUCCACAUCUACGAAUUCGUACCAUAGAGAGGUCAUCCGCUUACCGAGAUCGGAAGAGCACACGU | 0.0208 ± 0.0016 |
| target 1 insG 3' of 22,insU 3' of 20 (mixed) RNA 1: CACCCGUGCAAAAAUGCAGGGGUCUAAAACUGAGCGGAUAACCUCUCUAUGG RNA 2: GGGAAUGGAUCCACAUCUACGAAUUCGUACGCAUUAGAGAGGUUAUCCGCUCACCGAGAUCGGAAGAGCACACGU | 0.038 ± 0.005 |
| target 1 insA 3' of 22,insG 3' of 8 (mixed) RNA 1: CACCCGUGCAAAAAUGCAGGGGUCUAAAACUGAGCGGAUAACCUCUCUAUGG RNA 2: GGGAAUGGAUCCACAUCUACGAAUUCGUACACAUAGAGAGGUUAUGCCGCUCACCGAGAUCGGAAGAGCACACGU | 0.0174 ± 0.001 |
